Data: article PMC6165294

How the values were obtained:
[1] = target: GST-fusion NaV1.1 IQ domain (amino acids 1909-1936) (human); experiment: pull-down; GST-fusion IQ or mutant (2-4 ug) immobilised on GS-4B; CaM or mutant 0.07-7.0 uM; [Ca2+] 2 mM; 150 mM NaCl, 50 mM Tris pH 8.0, 4 h at 4 C; Coomassie densitometry, one- or two-sites Hill fit; apparent constants
[2] = target: GST-fusion NaV1.1 IQ domain (amino acids 1909-1936) (human); experiment: pull-down; phosphorylation series (Figure 6, Table 3): GST-IQ on GS-4B beads as control, treated with CaMKIIT286D or with CIP, then CaM 0.07-7 uM; [Ca2+] 100 nM; two-sites Hill fit; apparent constants
[3] = target: GST-fusion NaV1.1 IQ domain phosphorylated by CaMKII (human); experiment: as above
[4] = target: GST-fusion NaV1.1 IQ domain dephosphorylated by CIP (human); experiment: as above
[5] = target: GST-fusion NaV1.1 IQ domain (amino acids 1909-1936) (human); experiment: pull-down; GST-fusion IQ or mutant (2-4 ug) immobilised on GS-4B; CaM or mutant 0.07-7.0 uM; [Ca2+] ≈ free; 150 mM NaCl, 50 mM Tris pH 8.0, 4 h at 4 C; Coomassie densitometry, one- or two-sites Hill fit; apparent constants
[6] = target: GST-fusion NaV1.1 IQ domain (amino acids 1909-1936) (human); experiment: pull-down; phosphorylation series (Figure 6, Table 3): GST-IQ on GS-4B beads as control, treated with CaMKIIT286D or with CIP, then CaM 0.07-7 uM; [Ca2+] 2 mM; two-sites Hill fit; apparent constants
[7] = target: GST-fusion NaV1.1 IQ domain phosphorylated by CaMKII (human); experiment: as above
[8] = target: GST-fusion NaV1.1 IQ domain dephosphorylated by CIP (human); experiment: as above
[9] = target: GST-fusion NaV1.1 IQ domain (amino acids 1909-1936) (human); experiment: pull-down; GST-fusion IQ or mutant (2-4 ug) immobilised on GS-4B; CaM or mutant 0.07-7.0 uM; [Ca2+] 100 nM; 150 mM NaCl, 50 mM Tris pH 8.0, 4 h at 4 C; Coomassie densitometry, one- or two-sites Hill fit; apparent constants
[10] = target: GST-fusion NaV1.1 IQ domain (amino acids 1909-1936) (human); experiment: pull-down; GST-fusion IQ or mutant (2-4 ug) immobilised on GS-4B; CaM or mutant 0.07-7.0 uM; [Ca2+] 500 nM; 150 mM NaCl, 50 mM Tris pH 8.0, 4 h at 4 C; Coomassie densitometry, one- or two-sites Hill fit; apparent constants
[11] = target: GST-fusion NaV1.1 IQ domain (amino acids 1909-1936) (human); experiment: pull-down; phosphorylation series (Figure 6, Table 3): GST-IQ on GS-4B beads as control, treated with CaMKIIT286D or with CIP, then CaM 0.07-7 uM; [Ca2+] 500 nM; two-sites Hill fit; apparent constants
[12] = target: GST-fusion NaV1.1 IQ domain phosphorylated by CaMKII (human); experiment: as above
[13] = target: GST-fusion NaV1.1 IQ domain dephosphorylated by CIP (human); experiment: as above
[14] = target: GST-fusion NaV1.1 IQ domain (amino acids 1909-1936) (human); experiment: pull-down; phosphorylation series (Figure 6, Table 3): GST-IQ on GS-4B beads as control, treated with CaMKIIT286D or with CIP, then CaM 0.07-7 uM; [Ca2+] ≈ free; two-sites Hill fit; apparent constants
[15] = target: GST-fusion NaV1.1 IQ domain phosphorylated by CaMKII (human); experiment: as above
[16] = target: GST-fusion NaV1.1 IQ domain dephosphorylated by CIP (human); experiment: as above

Kd1 (site 1 of the two-sites fit) [1]: 0.0682 µM
Kd2 (site 2 of the two-sites fit) [1]: 0.559 µM
Kd2 (site 2 of the two-sites fit) [2]: 3.09 µM
Kd1 (site 1 of the two-sites fit) [3]: 0.0251 µM
Kd2 (site 2 of the two-sites fit) [3]: 3.03 µM
Kd1 (site 1 of the two-sites fit) [4]: 0.0365 µM
Kd2 (site 2 of the two-sites fit) [4]: 1.42 µM
Kd2 (site 2 of the two-sites fit) [5]: 4.58 µM
Kd2 (site 2 of the two-sites fit) [6]: 1.1 µM
Kd1 (site 1 of the two-sites fit) [7]: 0.0473 µM
Kd2 (site 2 of the two-sites fit) [7]: 1.95 µM
Kd1 (site 1 of the two-sites fit) [8]: 0.0383 µM
Kd2 (site 2 of the two-sites fit) [8]: 2.01 µM
Kd1 (site 1 of the two-sites fit) [9]: 0.063 µM
Kd2 (site 2 of the two-sites fit) [9]: 2.91 µM
Kd1 (site 1 of the two-sites fit) [10]: 0.0433 µM
Kd2 (site 2 of the two-sites fit) [11]: 5.04 µM
Kd1 (site 1 of the two-sites fit) [12]: 0.013 µM
Kd2 (site 2 of the two-sites fit) [12]: 8.17 µM
Kd2 (site 2 of the two-sites fit) [13]: 3.95 µM
Kd1 (site 1 of the two-sites fit) [14]: 0.0376 µM
Kd2 (site 2 of the two-sites fit) [14]: 2.49 µM
Kd1 (site 1 of the two-sites fit) [15]: 0.0361 µM
Kd2 (site 2 of the two-sites fit) [15]: 1.44 µM
Kd1 (site 1 of the two-sites fit) [16]: 0.0371 µM
Kd2 (site 2 of the two-sites fit) [16]: 2.03 µM
Substance: calmodulin (CaM), human, wild type (from UniProt P0DP23 1-149) (natural protein)
